The text below walks through data of US20190330360A1 (IGM BIOSCIENCES, published 2019).

The assay concerns the target T1, GITR on activated human T cells (human, UniProt Q9Y5U5 26-241).
T1 construct: also called GITR on CD4 T cells
T1 sequence: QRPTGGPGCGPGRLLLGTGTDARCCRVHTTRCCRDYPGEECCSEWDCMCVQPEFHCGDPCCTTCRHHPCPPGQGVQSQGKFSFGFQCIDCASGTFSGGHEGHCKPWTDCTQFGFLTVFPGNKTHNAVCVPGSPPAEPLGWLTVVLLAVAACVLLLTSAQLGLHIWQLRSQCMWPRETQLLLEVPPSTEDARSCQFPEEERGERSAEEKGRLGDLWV
The assay is described as follows: flow cytometry, binding dose response on activated human T cells. The procedure: To assess the ability of IgG and IgM antibodies to bind GITR on activated T cells, a binding assay was performed by the following method. Tissue culture plates were coated with 5 μg/mL of anti-CD3 (eBioscience #16-0037-85) at 4° C. overnight, then washed 2 times with PBS. Purified human CD3 T cells (Astarte Biologics) were seeded at 0.1×10⁶ cells/well and incubated with 2 μg/mL of soluble anti-CD28 (Invitrogen #16-0289-85) for 4 days at 37° C. Cells were washed with FACS Stain Buffer (BD Pharmigen Catalog #554656) and 1×10⁵ cells were stained with serial dilutions of anti-GITR antibodies, 5 μg/mL IgG isotype control (Jackson ImmunoResearch #009-000-003), or 5 μg/mL IgM isotype control (Jackson ImmunoResearch #009-000-012) for 30 minutes at 4° C. Cells were washed twice, then stained for 30 minutes at 4° C. with 5 μg/mL anti-human kappa-AF488 secondary antibody (Biolegend #316512), and anti-human CD4-APC (BD Biosciences #555349) and anti-human CD25-PerCP (Biolegend #356111) for immunophenotyping. Cells were washed twice, resuspended in FACS Stain Buffer, and acquired by flow cytometry. The results are shown in FIG. 3A (Anti-GITR IgG and IgM #1) and FIG. 3B (Anti-GITR IgG and IgM #2). Filled histograms, Isotype controls; Open histograms, Anti-GITR antibodies. All the constructs bound to the activated T cells.

B1: Anti-GITR IgG #1 (antibody, V domains shown)
VH: QVQLVESGGGVVQPGRSLRLSCAASGFTFSSYGMHWVRQAPGKGLEWMAVIWYVGSNKYYADSVKGRFTISRDNSKNTLYLQMNSLRAEDTAVYYCARGGELGRDYYSGMDVWGQGTTVTVSS
VL: DIQMTQSPSSLSASVGDRVTITCRASQGIRNDLGWYQQKPGKAPKRLIYAASSLQSGVPSRFSGSGSGTEFTLTISSLQPEDFATYYCQQHNSYPWTFGQGTKVEIKR
notes: VH and VL put into IgG format; Detected with anti-human kappa; also called Anti-GITR #1 IgG; Anti-GITR #1 (IgG format)
For B1, the binding result is reported as “binds”.

B2: Anti-GITR IgG #2 (antibody, V domains shown)
VH: QVQLVESGGGVVQPGRSLRLSCAASGFTFSSYGMHWVRQAPGKGLEWVAVIWYEGSNKYYADSVKGRFTISRDNSKNTLYLQMNSLRAEDTAVYYCARGGSMVRGDYYYGMDVWGQGTTVTVSS
VL: AIQLTQSPSSLSASVGDRVTITCRASQGISSALAWYQQKPGKAPKLLIYDASSLESGVPSRFSGSGSGTDFTLTISSLQPEDFATYYCQQFNSYPYTFGQGTKLEIK
notes: VH and VL put into IgG format; Detected with anti-human kappa; also called Anti-GITR #2 IgG; Anti-GITR #2 (IgG format)
For the molecule B2, the binding result was “binds”.
